Data as given in the nanobody polyreactivity screen of Harvey et al. (2022).

experiment: yeast display, Sf9 membrane polyspecificity reagent, FACS + sequencing; frameworks hold sequencing errors
How it was run: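 Galactose induction of a Saccharomyces cerevisiae BJ5465 synthetic nanobody display library ran 36–48 hours. The cells were then stained for 1 hour at 4 °C with 10% biotinylated, detergent-solubilized Sf9 membrane reagent, pulled down on streptavidin microbeads and FACS-sorted into low and high (top ~1%) gates on expression and reagent-binding fluorescence. Labels for polyreactivity follow the gate of origin.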

| Sequence | polyreactivity (PSR sort gate) |
| --- | --- |
| QVQLVETGGGLVQAGSSLRLSCAASGSTFIVYAMGWYRQAPGKEREFVAAITYRGGSSYYADSVKGRFTISRDNAKNTVYLQMNSLKPEDTAVYYCATETDRYPYIRRYQFPYYYWGQGTQVTVSS | high polyreactivity |
| QVQLVESGGGLVQAGGSLRLSCAASGLTFIYNAMGWYRQAPGKERELVAAISGNGGDTYYADSVKGRFTISRDNAKNTVYIQMNSLKPEDTAVYYCAADYAYTPITWDEYWGQGTQVTVSS | low polyreactivity |
| QVQLVESGGGLVQAGGSLRLSWAASGSIFYQNPMGSYRQAPGKERELVAAISSAGSTYYADSVKGRFTISRDNAKNTVYLQMNSLKPADTAVYYCAADDLGWWFYSGGEDYYYWGQATQVTVSS | low polyreactivity |
| QVQLVESGGGLVQAGGSLRLSCAASGLILGYYAMGWYRQAPGKERELVAAITSSGTTTYYADSVKGRFTISRDNAKNTVYLQMNSLKPEDTAVYYWAALYIGKKRFNYWGQGTQVNVSS | high polyreactivity |
| QVQLVESGGGLVQAGGSLRLSCAASGSTLGRYAMGWYRQAPGKERELVASITWSDDSTYYADSVKGRFTISRDNAKNTVYLQMNSLKPEDTAVYYCAAAGNLYTYRFYYWGQGTQVTVSS | low polyreactivity |
| QVQLVESGGGLVQAGGSLLLSCAASGSILVTYAMGWYRQAPGKERQLVAAISRGGRTYYADSVKGRFTISRDSAKNTVYLQMKSLNPEDNAVYYCNTLTRLVYDGMGYWGQGTQVIVSS | high polyreactivity |
| HVQLVESGGGLVQAGGSLRLSCAASGLIFSAYAMGWYRQAPGKEREFVAAISRSGGITFYADSVKGRFTISRDNAKNTVYLQMNSLKPEDTAVYYCAARLYKYRRGGGYFWGQGTKVTVSS | high polyreactivity |
| QVQLVESGGGLVQAGGSLRLSCAASGSTFKKYAIGWYRQAPGKERELVAAITWTGGSTYYADSVKGRFTISRDNAKNTVYLQMNSLKPEDTAVYYCAAYKTYAVKYYWGQGTQVTVSS | high polyreactivity |
| QVQLVESGGGLVQAGGSLRLSCAASGLTFNKNAMGWYRQAPGKESEFVAAITRRGGSTYYADSVKGRFTISRDNAKNTVFLQMNSLKPEDTAVYYCAVYPASVNPYHYDYWGQGTQVTVSS | high polyreactivity |
| QVQLVESGGGLVQAGGSLRLSCAASGSIFGSNAMGWYRQALGKERELVAAISDSTGSTYYADSVKGRFTISRDNAKNTVYLQMNSLKPEDTAVYYCDARTYYYRWHIYDYWGQGSQVTVSS | low polyreactivity |
| QVQLVESGGGLVQAGGSLSLSCAASGRTFGYYTMGWYRQAPGKERELVAAINWGGSRTYYADSVKGRFTISRDNAKNTVYLEMNSLKPEDTAVYYCAADVYRQWADDSWGLGTQVTVSS | high polyreactivity |
| QVQLVESGGGVVQAGGSLRLSCAASGLIFRRYAMGWYRQAPGIERELVAAISGNGGSTYYADSVKGRFTISRDKAKNTVYVQMNCLKPEDTAVYYCAARSLGIYNYWGQGTQVTVSS | high polyreactivity |
| QVQLVESGGGLVQAGGSLRLSCAASGSIFAYKAKGWYRQAPGKEREFVAVITRSDDSTYAYSVKGRFTISRDNAKNPFYLQMNSLKAEDTAVYYCARRWSYLRPSLEYDSWGQGTQVTVSS | low polyreactivity |
| QVQLVESGGGLVQAGGSLRLSCAASGRTFDIYAMGWYRQAPGKERELVAAISSGGSTYYADSVKGRFTISRDNAKNTVYLQINSLKPEDTAVYYCAVRWYDQVSRRGIGYYWGQGSQVTVSS | low polyreactivity |
| QVQLVESGGGLVQAGGSLRLSCAASGSIFVRNAMGWYRQAPGKERELVATITRRGGRTYYADSVKGRFTISRDNAKNTVYLQMNSLKPEDTAVYYCAARVRTATRRFTSYYWGQGTQVTVSS | high polyreactivity |
| QVQLVESGGGLVQAGGSLRLSCAASGRTFGRYAMGWYRQAPGKERELVAGISGSVGITYYADSVKGRFTISRDNAKNTVYLQMNSLKPEDTAVYYCAVVARAGHKYDYWGQGTQVTVSS | low polyreactivity |
| QVQQQESGGGMEQARGSLRLSCAASGYISWADYMGCYRQAPGKERELVAVIGYGSTTYYADSVKGRFTMSRDNAKNTAYLQMNSLKPEDTAVYYCAVGWYRDTAYKYWGQGTQVTVSS | low polyreactivity |
| QVQLAESGGGLVQAGGSLRLSCAASGSTFVAYAMGWYRQAPGKERELVAAITRSGGSTYYADSVKGRFTISRDNAKNTVYLQMNSLKPEDTAVYYCAARHYRSRDGYWGQGTQVTVSS | high polyreactivity |
| QVQLVESGGGLVQAGGSLRLSCAASGRILPYNVMGWYRQATGKEREFVAAITGSGGDTYYADSVKGRFTISRDNAKNTVYLQMHILKPVDTAVYYCAAAPYIGGSFGQTPGSGYWGQGTQVTVSS | low polyreactivity |
| QVQLVESGGGLVQAGGSLRLSCAASGFTFTRYAMGWYRQAPGKERELVADITRSGGTTYYADSVKGRFTISRDNAKNTVYLQMNSLKPEDTAVYYCAADTYSHGRYYRMDYWGQGTQVTVSS | high polyreactivity |
| QVQLVETGGGLVQAGGSLRLSCAASGFIFSYNAMGWYRQAPGKERELVASISRADSTNYADSVKGRFTISRDNAKNTVYLQMNSLKPEDTAVYYCAKKGRTARRLYSFDYWGQGTQVTVSS | low polyreactivity |
| QVQLVESGGGLVQAGGSLRLSCAASGITFDKYAMGWYRQAPGKERELVAAISGSDGSTYYADSVKGRFTISRDNAKNTVYLQMNSLKPEDTAVYYCAAESEYAGTYEYDYWGQGTQVTVSS | low polyreactivity |
| QVQLVESGGGLVQAGGSLRLSCAASGYTFFYYAMGWYRQAPGKERELVASISWNGGSTYYADSVKGRFTISRDNGKNTVYLQMNSLKPEDTAVYYCAADSPRPRLTSYGYIGGEYYYWGQGTQVTVSS | low polyreactivity |
| QVQLVESGGGLVQAGGTLRLSCAASGSTFTDYDMGWYRQAPGQERELVAAITSGGSTNYADSVKGRFTISRDNAKNTVYLQMNSLKPEDTAVYYCAAADADRKYDFWGQGTQVTVSS | low polyreactivity |
| QVQLVESGGGLVQAVGSLRLSCAASGRTFNRYGMGWYRQAPAKEMELVAAIRWSGTTTYYADSVKGRFTISRDNAKNTVYLQMNSQKPEDTAVYYCAAGTNVGRYGYYYWGQGTQVTVSS | high polyreactivity |
| QVQLVESGGGSVQAGGSLRISCAASGSIFSLYAMGWYRQAPGKERELVASISSDGSTYYADSVKGRFTISRDNAKNTVYLQMNSLKPEDTAVNYCATAVYSRYSPYAGYYYWGQGTQVTVSS | low polyreactivity |
| QVQRVESGGGLVQAGGSLRLSCAASRITFTVNAMGWYRQAPGKERELVAAISWSGGSTYYADSVKGRFTISRDIAKNTVYLQMNSLKPEDTAVYYCNAVLYRFAYNYWGQGTQVTVSS | low polyreactivity |
| QVQLVESGGGLVQAGGSLRLSCAASGSIFHIYAMGWYRQAPGKERELVAAISSGGRTNYADSVKGRFTISRDNAKNTVYLQMNSLKPEDTEVYYCAADWIYLPTRNYRVRVDYWGQGTQVTVSS | high polyreactivity |
| QVQLVESGGGLVQAGGSLRLSCAASGIIFYYYAMGWYRQAPGKERELVAAISRSGGITYYPDSVKGRFTISRDNAKNTEYFQMNSLKAEDTAVYYGNALRLVYYHPEDDYWGQGPQVTVSS | high polyreactivity |
| QVQLVESGGGLVQAGGSLRLSCAASGSILGSYAMGWYRQAPGKERELVAAISWNGARTYYADSVKGRFTISRDNAKNTVYLQMNSLKPEDTAVYYCARVRVGRTTFDYWGQGTQVTVSS | low polyreactivity |
